Data on 14 molecules can be found in patent publication US20180194862A1 (AbbVie / Abbott, published 2018).

Some results are limits rather than exact numbers.

The target of experiment [1] is T1, soluble form of the extracellular domain of human CD40 (Creative BioMart) (human, UniProt P25942 21-193).
T1 construct: Bought
Nature of the experiment: SPR, Ab captured. The protocol:
CD40 binding kinetics was analyzed by surface plasmon resonance assay with a Biacore T200 instrument (Table 1-5). Briefly, a goat anti-mouse Fc antibody (Pierce) or goat anti-human Fc (Pierce) was immobilized on a CM5 sensor chip, followed by capture of the anti-CD40 antibodies on the test surface. Subsequently, the soluble form of the extracellular domain of human CD40 (Creative BioMart) or cynomolgus (cyno) CD40 (Creative BioMart) was injected, and the binding and dissociation were measured.
On the technique in general: In SPR one partner is held on a chip, and binding of the other changes the refractive index at the surface.

The target of experiment [2] is human CD40 on cells (HEK293 stable transfectants, HEK-Blue CD40 cells, human B cells, monocytic cells, … (human, UniProt P25942 21-277)). Nature of the experiment: cell-based or functional assay.
human CD40 on cells (HEK293 stable transfectants, HEK-Blue CD40 cells, human B cells, monocytic cells, …, sequence (P25942 21-277 limits assumed): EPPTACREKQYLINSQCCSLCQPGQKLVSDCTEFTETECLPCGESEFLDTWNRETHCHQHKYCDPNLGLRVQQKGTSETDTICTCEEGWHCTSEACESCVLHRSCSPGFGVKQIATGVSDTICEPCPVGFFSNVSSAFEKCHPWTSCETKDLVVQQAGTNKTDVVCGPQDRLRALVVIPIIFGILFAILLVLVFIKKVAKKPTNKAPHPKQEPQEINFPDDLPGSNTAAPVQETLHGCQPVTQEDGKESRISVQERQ
The next experiment addresses T2, cynomolgus mesothelin (cynomolgus).
T2 construct: also called cynoMSLN; Cyno MSLN
As to the kind of experiment: SPR.

The target of the next experiment is T3, human mesothelin (human, UniProt Q13421 296-580, limits assumed).
T3 construct: also called Human MSLN
T3 sequence (Q13421 other isoform, or with tags, fused parts or gaps limits assumed): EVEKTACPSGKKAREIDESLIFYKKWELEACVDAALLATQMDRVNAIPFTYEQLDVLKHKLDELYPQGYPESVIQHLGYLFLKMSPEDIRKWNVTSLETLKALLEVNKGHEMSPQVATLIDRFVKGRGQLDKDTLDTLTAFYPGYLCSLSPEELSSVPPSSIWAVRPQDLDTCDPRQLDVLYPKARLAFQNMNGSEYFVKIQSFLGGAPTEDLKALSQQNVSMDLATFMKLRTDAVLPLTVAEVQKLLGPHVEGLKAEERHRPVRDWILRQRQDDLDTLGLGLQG
As to the kind of experiment: SPR.

T1 sequence (P25942 21-193 limits assumed): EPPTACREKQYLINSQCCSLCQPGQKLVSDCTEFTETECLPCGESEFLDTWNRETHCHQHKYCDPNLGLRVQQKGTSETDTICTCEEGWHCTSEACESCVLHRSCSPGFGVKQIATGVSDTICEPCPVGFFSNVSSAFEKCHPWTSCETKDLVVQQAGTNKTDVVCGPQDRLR

B1: AD163.7.2 (antibody, V domains shown)
VH: QVQLQQSGPELVKSGASVKISCKASGYTFTDYYINWVKQRPGQGLEWIGWIFPGSGSVYCNEQFKGQATLTVDRSSSTAYMLLSSLTSEDSAVYFCASSLGKFAYWGQGTLVTVSA
VL: DIVMTQSQKFMSTTVGDRVSITCKASQSVVTAVAWYQQKPGQSPKLLIYSASNRYTGVPDRFTGSGSGTDFALTIRTMQSEDLADYFCQQYSSYPYTFGGGTKLEIK
notes: mouse hybridoma antibody; also called muAb8
With B1, in experiment [1], binding was characterised by a dissociation constant (Kd) of 4.1 nM, the koff turned out to be 0.0042 s⁻¹ and the kon was found to be 1e+06 M⁻¹ s⁻¹. In experiment [2], the “Monocyte activation (THP1-Xblue, OD655)” value was found to be 0.13 OD655 and the “moDC activation (IL-12p70)” value was determined as 905 pg/mL.

B2: AD175.14.11 (antibody, V domains shown)
VH: EVQLQQSGPELVKPGASVKISCKASGYTFTDYYMNWVKQSHGKSLEWIGDINPNNGGTSYNQKFKGKATLTVDKSSSTAYMELRSLTSEDSAVYYCARRGGLGRGTYALDYWGQGTSVTVSS
VL: DIQMTQTTSSLSASLGDRVTISCRASQDISNYLNWYQQKPDGTVKPLIYYTSRLHLGVPSRFSGSGSGTDYSLTISNLEQEDIATYFCQQGNTLPLTFGAGTKLELK
notes: mouse hybridoma antibody; also called muAb3
For B2, in experiment [1], the Kd is 170 nM, the koff was 0.012 s⁻¹ and the kon is 69000 M⁻¹ s⁻¹. Moreover, in experiment [2], the “Monocyte activation (THP1-Xblue, OD655)” value is 0.2 OD655 and the “moDC activation (IL-12p70)” value is 0 pg/mL.

B3: AD164.76.3 (antibody, V domains shown)
VH: DVQLQESGPGLVKPSQSLSLTCSVTGYSITSNYYWNWIRQFPGNKLEWMGYIRYDGSNNYNPSLKNRISITRDTSKNQFFLRLNSVTTEDTATYYCTRLDYWGQGTTLTVSS
VL: DAVMTQTPLSLPVSLGDQASISCRSSQSLENSNGNTFLNWFLQKPGQSPQLLIYRISNRFSGVPDRFSGSGSGTDFTLKISRVEAEDLGVYFCLQVTHVPFTFGSGTKLEIK
notes: mouse hybridoma antibody; also called muAb10; AD164.76.2
As to B3, in experiment [1], the Kd turned out to be 13 nM, the koff worked out at 0.034 s⁻¹ and the kon came to 2.6e+06 M⁻¹ s⁻¹. Moreover, in experiment [2], the “Monocyte activation (THP1-Xblue, OD655)” value is 0.16 OD655 and the “moDC activation (IL-12p70)” value stood at 770 pg/mL.

B4: AD165.1.2 (antibody, V domains shown)
VH: DVQLQESGPGLVEPSQSLFLTCSVTGYSITTNYNWNWIRQFPGNKLEWMGYIRHDGTNNYNPSLKNRISIIRDTPKNQFFLKLNSVTTEDTAIYFCTRLDYWGQGTSVTVSS
VL: DAVMTQTPLSLPVSLGDQASISCRSSQSLENSYGNTFLNWFLQRPGQSPQLLIYRVSNRFCGVPDRFSGSGSGTDFTLKISRVEAEDLGIYFCLQVTHVPYTFGGGTKLEIK
notes: mouse hybridoma antibody; also called muAb5
As to B4, in experiment [1], the affinity, expressed as Kd, was 0.88 nM; the off-rate (koff) was 0.002 s⁻¹; the kon worked out at 2.3e+06 M⁻¹ s⁻¹. Moreover, in experiment [2], the “Monocyte activation (THP1-Xblue, OD655)” value was 0.14 OD655 and the “moDC activation (IL-12p70)” value turned out to be 720 pg/mL.

B5: AD164.14.6 (antibody, V domains shown)
VH: DVQLQESGPGLVKPSQSLSLTCSVTGYSITSNYYWNWIRQFPGNKLEWMGYIRYDGSNNYNPSLKNRISITRDTSKNQFFLKLNSVTTEDTATYYCARLDYWGQGTTLTVSS
VL: DAVMTQTPLSLPVSLGDQASISCRSSQSLENTNGNTFLNWFLQKPGQSPQLLIYRVSNRFSGVPDRFSGSGSGTDFTLKISRVEAEDLGVYFCLQVTHVPFTFGSGTKLEIK
notes: mouse hybridoma antibody; also called muAb9
In the case of B5, in experiment [1], binding was characterised by a dissociation constant (Kd) of 19 nM, the koff amounted to 0.052 s⁻¹ and the kon turned out to be 2.8e+06 M⁻¹ s⁻¹. Besides, in experiment [2], the “Monocyte activation (THP1-Xblue, OD655)” value was 0.15 OD655 and the “moDC activation (IL-12p70)” value is 878 pg/mL.

B6: AD166.4.4 (antibody, V domains shown)
VH: QVQLQQSGAELMKPGASAKLSCKATGYTFTGYWIQWVKQRPGHGLEWIGEILPGGDHTKYNEKFRGKATFTSDTSSNTVYMQLSSLTTEDSAIYYCARVGGDYWGQGTTLTVSS
VL: DVVMTQTPLSLPVSLGDQASISCRSSQSLVNSNENTYLHWYLQKPGQSPKLLIYKVFNRYSGVPDRFSGSGSGTDFTLKISRVEAEDLGVYFCFQSTHVPWTFGGGTKLEIK
notes: mouse hybridoma antibody; also called muAb2
Turning to B6, in experiment [1], the Kd was found to be 3.5 nM, the koff turned out to be 0.0096 s⁻¹ and the kon worked out at 2.8e+06 M⁻¹ s⁻¹. In addition, in experiment [2], the “Monocyte activation (THP1-Xblue, OD655)” value was found to be 0.24 OD655 and the “moDC activation (IL-12p70)” value is 0 pg/mL.

B7: AD163.9.3 (antibody, V domains shown)
VH: QVQLQQPGAELVKPGASVKMSCKASGYTFTSYWITWVKQRPGQGLEWIGEINPGSGSTNYNEKFKSKATLTVDTSSSTAYMQLSSLTSEDSAVYYCARNRGTGDYWGQGTTLTVSS
VL: DVVMTQTPLSLPVSLGDQASISCRSSQSLVHSYGNTYLHWYLQKPGQSPKFLIYKVSNRISGVPDRLSGSGSGTDFTLKISRVEPEDLGVYFCSQSTHVPYTFGGGTKLEIK
notes: mouse hybridoma antibody; also called muAb1
Regarding B7, in experiment [1], the Kd came to 35 nM, the koff amounted to 0.016 s⁻¹ and the on-rate (kon) was determined as 470000 M⁻¹ s⁻¹. In addition, in experiment [2], the “Monocyte activation (THP1-Xblue, OD655)” value was determined as 0.19 OD655 and the “moDC activation (IL-12p70)” value came out at 2220 pg/mL.

B8: AD163.162.1 (antibody, V domains shown)
VH: QVQLQQPGAELVRPGSSVKLSCKASGYTFTSYWMHWVKQRPIQGLEWIGNIDPSNGETHYNQKFKDKATLTVDKSSSTAYMQLSSLTSEDSAVYYCARERIYYSGSTYDGYFDVWGTGTTVTVSS
VL: QIVLTQSPAIMSASPGEKVTMTCSASSSLSYMHWYQQKSGTSPKRWIYDTSKLASGVPARFSGSGSGTSYSLTISSMEAEDAATYYCQQWSSNPWTFGGGTKLEIK
notes: mouse hybridoma antibody; also called muAb6
In experiment [1], B8 gave a Kd of 63 nM, a koff of 0.0048 s⁻¹ and a kon of 76000 M⁻¹ s⁻¹. Further, in experiment [2], the “Monocyte activation (THP1-Xblue, OD655)” value is 0.11 OD655 and the “moDC activation (IL-12p70)” value was determined as 2160 pg/mL.

B9: AD163.27.12 (antibody, V domains shown)
VH: QVQLQQPGAELVRPGSSVKLSCKASGYTFTSYWMHWVKQRPIQGLEWIGNIDPSNGETHYNQKFKDKATLTVDKSSSTAYMQLSSLTSEDSAVYYCARERIYYSGSTYDGYFDVWGTGTTVTVSS
VL: QIVLTQSPAIMSASPGEKVTMTCSASSSLSYMHWYQQKSGTSPKRWIYDTSKLASGVPARFSGSGSGTSYSLTISSMEGEDGATYYCQQWSSNPWTFGGGTKLEIK
notes: mouse hybridoma antibody; also called muAb7
In experiment [1], B9 returned a Kd of 64 nM, a koff of 0.0048 s⁻¹ and a kon of 75000 M⁻¹ s⁻¹. Besides, in experiment [2], the “Monocyte activation (THP1-Xblue, OD655)” value came out at 0.12 OD655 and the “moDC activation (IL-12p70)” value turned out to be 1510 pg/mL.

B10: HuAM1 (antibody, V domains shown)
VH: EVQLVQSGAEVKKPGASVKVSCKASGDTFKRYYVQWVRQAPGQGLEWMGIINPSGVSTTYAQKFQGRVTMTRDTSTSTVYMELSSLRSEDTAVYYCAESRGSGYNYFAMDVWGQGTLVTVSS
VL: SYELTQPPSVSVSPGQTASITCSGDKLGDKYASWYQQKPGQSPVLVIYQDNRRPSGIPERFSGSNSGNTATLTISGTQAMDEADYYCQAWDSDTYVFGTGTKVTVL
notes: fully human antibody
On to B10, for which, in the experiment with cynomolgus mesothelin, the affinity, expressed as Kd, was 11 nM; the off-rate constant (koff) was determined as 0.0002 s⁻¹; the kon stood at 18000 M⁻¹ s⁻¹. In addition, in the experiment with human mesothelin, binding was put at a Kd of 2.7 nM, the koff stood at 5.1e-05 s⁻¹ and the kon stood at 19000 M⁻¹ s⁻¹.

B11: HuAM17 (antibody, V domains shown)
VH: EVQLVQSGAEVKKPGASVKVSCKASGDTFNRYYVQWVRQAPGQGLEWMGIINPSGVSTTYAQKFQGRVTMTRDTSTSTVYMELSSLRSEDTAVYYCAESRVPGYNIFAMDVWGQGTLVTVSS
VL: SYELTQPPSVSVSPGQTASITCSGDKLGDKYASWYQQKPGQSPVLVIYQDNRRPSGIPERFSGSNSGNTATLTISGTQAMDEADYYCQAWDSDTYVFGTGTKVTVL
notes: fully human antibody
B11: in the experiment with cynomolgus mesothelin, binding was characterised by a dissociation constant (Kd) of 3.4 nM, the koff came to 9.1e-05 s⁻¹ and the kon is 27000 M⁻¹ s⁻¹. In the experiment with human mesothelin, this molecule came in with a Kd of 0.53 nM, a koff of 1.5e-05 s⁻¹ and a kon of 29000 M⁻¹ s⁻¹.

B12: HuAM18 (antibody, V domains shown)
VH: EVQLVQSGAEVKKPGASVKVSCKASGDTFNRYYVHWVRQAPGQGLEWMGIINPSGVSTTYAQKFQGRVTMTRDTSTSTVYMELSSLRSEDTAVYYCAETRGSGYNYFGMDVWGQGTLVTVSS
VL: SYELTQPPSVSVSPGQTASITCSGDKLGDKYASWYQQKPGQSPVLVIYQDNRRPSGIPERFSGSNSGNTATLTISGTQAMDEADYYCQAWDSDTYVFGTGTKVTVL
notes: fully human antibody
For the molecule B12, in the experiment with cynomolgus mesothelin, the Kd is 9.3 nM, the koff was found to be 0.00013 s⁻¹ and the kon is 14000 M⁻¹ s⁻¹. In the experiment with human mesothelin, this molecule yielded a Kd of at most 0.66 nM, a koff of at most 1e-05 s⁻¹ and a kon of 16000 M⁻¹ s⁻¹.

B13: HuAM7 (antibody, V domains shown)
VH: EVQLVQSGAEVKKPGASVKVSCKASGDTFNRYYVHWVRQAPGQGLEWMGIINPSGVSTTYAQKFQGRVTMTRDTSTSTVYMELSSLRSEDTAVYYCAEVRGSGYNYFGMDVWGQGTLVTVSS
VL: SYELTQPPSVSVSPGQTASITCSGDKLGDKYASWYQQKPGQSPVLVIYQDNRRPSGIPERFSGSNSGNTATLTISGTQAMDEADYYCQAWDSDTYVFGTGTKVTVL
notes: fully human antibody
In the experiment with cynomolgus mesothelin, B13 gave a Kd of 4.9 nM, a koff of 0.00011 s⁻¹ and a kon of 22000 M⁻¹ s⁻¹. In the experiment with human mesothelin, this molecule had a Kd of at most 0.39 nM, a koff of at most 1e-05 s⁻¹ and an on-rate (kon) of 26000 M⁻¹ s⁻¹.

B14: HuAM6 (antibody, V domains shown)
VH: EVQLVQSGAEVKKPGASVKVSCKASGDTFNRYYVHWVRQAPGQGLEWMGIINPSGVSTTYAQKFQGRVTMTRDTSTSTVYMELSSLRSEDTAVYYCAESRVPGYNNFAMDVWGQGTLVTVSS
VL: SYELTQPPSVSVSPGQTASITCSGDKLGDKYASWYQQKPGQSPVLVIYQDNRRPSGIPERFSGSNSGNTATLTISGTQAMDEADYYCQAWDSDTYVFGTGTKVTVL
notes: fully human antibody
In the experiment with cynomolgus mesothelin, B14 returned a Kd of 3.9 nM, a koff of 8.5e-05 s⁻¹ and a kon of 22000 M⁻¹ s⁻¹. Further, in the experiment with human mesothelin, the Kd is 1 nM, the off-rate constant (koff) was determined as 2.4e-05 s⁻¹ and the kon is 24000 M⁻¹ s⁻¹.

By Kd is commonly meant the equilibrium constant for the complex coming apart. A low value points to a tighter complex. A word on the koff: it is the first-order rate constant of dissociation. As usually defined, the kon is the rate constant with which the complex forms. Read a low kon as slow association.
